Sequences and labels used below:
B1: TPR t1 (parent)
chain: GACCAAUCUGCCCUCAGAGCUCGAGAACAUCUUCGGAUGCAGAGGAGGCAGGCUUCGGUGGCGCGAUAGCGCCAACGUCCUCAACCUCCAAUGCAUCCCACCACAUGAUGAUGCCUGAAGAGCCUUGGUUUUUUG

Variants of B1 are the subject of this data set. The experiment in a line: polymerase ribozyme fitness, log enrichment relative to wild type (log ratio); higher = more active; in vitro selection for triplet polymerase activity. Summed up:
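Mutant libraries for each subunit of a heterodimeric triplet polymerase ribozyme were made by PCR and then transcribed. Each library underwent one round of in vitro selection in triplicate: annealing with a biotinylated primer, the partner subunit and triplets, frozen incubation at −7 °C, gel excision of extended constructs, streptavidin-bead capture and RT-PCR. Input and output libraries were Illumina-sequenced, and only genotypes with ≥10 input reads and ≥1 read per output were kept. Fitness is the logarithm, base 2, of genotype enrichment over wild-type enrichment, computed from inverse-variance-weighted replicate averages.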
Take U54C G69U G127C: the “polymerase ribozyme fitness (log ratio)” value is -0.892.

C56U A75U C86U: the “polymerase ribozyme fitness (log ratio)” value was -0.18. With G57A C99U the figure was -4.88. With C53U U112G the figure was -0.00138; with C56A G61A U92C, -4.04; with C56U C82U C86A U112G U129C, -1.4. Take C56A U96G G113A: the “polymerase ribozyme fitness (log ratio)” value was -1.95. With U54A C64U the figure was -0.112. Under C56U C86U G117A stands -1.37; under C56A C73U C97U A103U G120C, -7.26.

Turning to C56U A90C G110A A111G U132A, the “polymerase ribozyme fitness (log ratio)” value was -0.678.

On to C56A C97U G113U, for which the “polymerase ribozyme fitness (log ratio)” value is -4.2. With U54A C89G the figure was -1.31; with C56G C88U C94A G110U, -4.78; with C53U U78G C79A, -1.4.

As to C56A C86U, the “polymerase ribozyme fitness (log ratio)” value is -0.995.

For the variant C56U U129A, the “polymerase ribozyme fitness (log ratio)” value was -1.15. Under C56A C72G A90G stands -1.05; under C56U U67G G71A C80U G120C, -6.12.

U55C G61A C104A: the “polymerase ribozyme fitness (log ratio)” value was -1.51.

On to U54A G60C, for which the “polymerase ribozyme fitness (log ratio)” value is -0.566. Under U55A C73A stands 0.5. Under C56A G107A A121C stands -4.32. For U55A C101G, the “polymerase ribozyme fitness (log ratio)” value was -1.85. With C56U C115G the figure was -2.56; with U54G C80U U133A, -0.863; with C56G G69U, -0.682.

Consider C56A U78C C98A G122A C123U U132A, for which the “polymerase ribozyme fitness (log ratio)” value is -5.25. With C56U C114A G128A U133G the figure was -4.81. Take U55G A121C: the “polymerase ribozyme fitness (log ratio)” value amounted to 0.81. Under U55C G71A A90G G113U stands -2.42; under U55G C73G C123U, 0.666; under U54G C56U, -4.05.

Consider C56U C86U C124U U131A, for which the “polymerase ribozyme fitness (log ratio)” value worked out at 1.32. Under C56U A111U stands -1.9; under C56G U125A, -1.54. Take C56U C72U: the “polymerase ribozyme fitness (log ratio)” value was -0.11. On to C56U C72A, for which the “polymerase ribozyme fitness (log ratio)” value was -0.0735. Regarding U54G G60C U112A G117C, the “polymerase ribozyme fitness (log ratio)” value was -5. Under C56A A100C stands -1.19; under C56G A83C C101A C124G, 0.428.

U55G U130G: the “polymerase ribozyme fitness (log ratio)” value was -0.58. For C56A G71A C86A C104A, the “polymerase ribozyme fitness (log ratio)” value is -6.75. Under C56G A111C A119U stands -1.72. With U55C U106G the figure was -1.88; with C56G A74U, -0.327; with C56A U59G A83G, -1.48.

In the case of C56G C94G, the “polymerase ribozyme fitness (log ratio)” value was -1.87. Under C56A U92G stands -2.6. Under C56A U92A stands -3.75; under C56G G77C U130G, -0.115; under U54G C82A, -0.235.

In the case of C56G C82G C115G A121U, the “polymerase ribozyme fitness (log ratio)” value was -0.801. Under C56G C102A stands -1.59; under U55C G61U A90G U112C A119U, 0.196; under C56G U87A G120A, -0.872. Under C56A G60A G69C stands -3.21; under U55C G57U A66C C123G U132A, 0.759; under C53U G71C, -0.133. Under C53U G71U stands -0.192; under C56U C88U C114A G120A, -1.81. On to C53U G69A, for which the “polymerase ribozyme fitness (log ratio)” value was -2.64.

As to C56G G58U U59C, the “polymerase ribozyme fitness (log ratio)” value was 1.36. Take U54A C64U C72U C86A: the “polymerase ribozyme fitness (log ratio)” value was -0.948. On to U55A C73U A83G, for which the “polymerase ribozyme fitness (log ratio)” value is -1.24.

As to C56G U59G C97A, the “polymerase ribozyme fitness (log ratio)” value is -5.51. With C56A U87G A108G G113C the figure was -3.65; with U55G G117U, -2.73; with C56A C80A, -2.22.

With G57A C73G U87G U125A, the “polymerase ribozyme fitness (log ratio)” value is -1.37.

Consider G57A C115G, for which the “polymerase ribozyme fitness (log ratio)” value is -2.25. Under U54G G93A A111U stands -3.35; under C56A C79G G93A, -2.59; under C56A U106A, -0.695. Turning to G57A G77C, the “polymerase ribozyme fitness (log ratio)” value is -2.28.

Take C56A G127A: the “polymerase ribozyme fitness (log ratio)” value is -1.47. Turning to C56A G71A A100U, the “polymerase ribozyme fitness (log ratio)” value is -5.55. Under C56U C64U stands -1.54. With C56U C80A C114U the figure was -4.51.

Turning to C56U C89A, the “polymerase ribozyme fitness (log ratio)” value was -1.04.

In the case of C56U G61A, the “polymerase ribozyme fitness (log ratio)” value is -4.41. Under U55C U59G C114U stands -1.28; under U54C G71C A91U U116C, -5.63. Regarding C56G G113C, the “polymerase ribozyme fitness (log ratio)” value was -1.92. As to U54A G61A C124A G128U, the “polymerase ribozyme fitness (log ratio)” value is -0.356. With U54G G71A G120C the figure was -6.71. With U55A G63A U78A the figure was -0.969; with G57A G61A C104U, -0.114. Take U54G C62G U81A C98U: the “polymerase ribozyme fitness (log ratio)” value is -4.8. Under C56G C62G stands -3.35; under C56U U131G, 0.127; under C56U C82A G110C, -4.8. With C56U A103U the figure was -4.81; with U55C C62U C98A, -6.18; with C56U C124U U133G, 1.14. Take C56A C73A C94U G113A: the “polymerase ribozyme fitness (log ratio)” value is -2.48. With C53U G69A A91U G110A G113U G128U the figure was -5.88; with U55C C85A G113C, -3.66; with C56A G128C, -2.8.

U54G G71U C79A: the “polymerase ribozyme fitness (log ratio)” value is -5.67.

With C56U U112C G117C G120U G127C U132A, the “polymerase ribozyme fitness (log ratio)” value is -4.94. With U54A A119G G135U, the “polymerase ribozyme fitness (log ratio)” value came to 0.414.

Turning to U55C C62U C89A U109A, the “polymerase ribozyme fitness (log ratio)” value is -6.44.

On to G57A C104U, for which the “polymerase ribozyme fitness (log ratio)” value is -0.961.

In the case of G57A C104A, the “polymerase ribozyme fitness (log ratio)” value is -2.92. With C53U G71C C82G the figure was -0.812; with C56G C79U, -0.342; with C56G G71U A121C, -2.41. Under C56A U67A stands -6.26. Under C56G G110A U116G stands -3.62; under U55C C82G A91C A105U C123G, -6.04.

As to U54A G113A, the “polymerase ribozyme fitness (log ratio)” value was -1.58. With G57A G122C C123A U130C the figure was -1.47; with G57A A75U U96C U131C, -1.53; with U55A G77A A111U C114U, -5.73.

C56U G60U U87A: the “polymerase ribozyme fitness (log ratio)” value is -3.76.

As for C56G C82U A91C U116C, the “polymerase ribozyme fitness (log ratio)” value is -2.61. Under U55C C73A C76G A121U stands 0.355; under C56A C72A, -0.579; under U54C C79A C98U C101A, -5.66. Under C56G C99A stands -6.98; under U55C C88U, -0.394; under U55C A91U C94A, -2.3. As to U54C C70U, the “polymerase ribozyme fitness (log ratio)” value is -0.253. Under U54G C85G U133A stands -1.09; under C56A G113C, -1.7; under C53U U81A, -1.63. With C56A G63A A91C the figure was -5.68; with G57A A84C, -1.76; with U54G C80G C123U, -4.41. With C56U G113U G120A the figure was -3.03; with U55G G61A C73U U81A C114A A119U, -3.58; with U55G C88G, -0.483.

On to C56U U106A, for which the “polymerase ribozyme fitness (log ratio)” value is 0.0907. With U54G C102U the figure was -1.84. In the case of C56G A75G U109C, the “polymerase ribozyme fitness (log ratio)” value was -7.14. Under C56U A83G stands -0.676; under U54A A95U, -0.632. Under C53U U92G stands -2.82; under C56A C114U C115U U131C, -5.83. Consider C53U U81C C88A, for which the “polymerase ribozyme fitness (log ratio)” value was -1.58. With C53U G57U C62G the figure was -2.6.

Regarding U54C G77U C79A C88U, the “polymerase ribozyme fitness (log ratio)” value is -1.68. Under U54A C56U stands -0.589; under U54A C70G C86U, -3.2. With U54C C82U U106A U109A G135U the figure was -4.59; with C56G C64U, -0.732; with C56A A83G A84C G135C, -0.872.

As to U54C C56A C85G G117A, the “polymerase ribozyme fitness (log ratio)” value is -4.42. Under U54G C62A U78C C123U U126A stands -6.39. Under U54G A95U stands -0.988; under C56G A84G G120A, -0.771. Under U55A U133A stands -0.185. On to C56G C62U A103U U109G, for which the “polymerase ribozyme fitness (log ratio)” value was -6.92.

On to C56G A66G C94A, for which the “polymerase ribozyme fitness (log ratio)” value is -2.49. Consider U54G U112A G117C, for which the “polymerase ribozyme fitness (log ratio)” value is -4.03. U55C C123A: the “polymerase ribozyme fitness (log ratio)” value is -0.354.

In the case of C56G U96G U125A, the “polymerase ribozyme fitness (log ratio)” value is -1.29. With U54A G127C the figure was -0.488; with U55C C62G G128U, -4.02.

Take C56U U92C: the “polymerase ribozyme fitness (log ratio)” value was -0.619. As for U54C C73G A121U, the “polymerase ribozyme fitness (log ratio)” value came to 1.17. Under C56A G57C stands 0.379; under C56U C62U C101G U133A, -3.24; under U54C G61U G71U C82U A83U C114U, -5.85. With C53U G60C G120A the figure was 0.0788; with C53U U59A C89A U130G, -3.42.

The record behind these values is the RNAGym collection of RNA variant scans (doi:10.1073/pnas.2313332121).
